Measured values taken from patent publication US20120207760A1.

B1: TCN-523 (5248_A17) (antibody, V domains shown)
VH: QVQLVQSGAEVKKPGSSVKVSCKASGGSFSNYAFSWVRQAPGQGLEWMGGTIPLLGTTNYAQKFQGRVTISADQFTSTAYMELGSLRSEDTAVYYCTRRKMTTAFDSWGQGTLVTVSS
VL: QPVLTQPPSASASLGASVTLTCTLSSAYSNYKVDWYQQRPGKGPRFVMRVGTGGIVGSKGDGIPDRFSVLGSGLNRYLTIKNIQEEDESDYHCGADHGSGSNFVSPYVFGGGTKLTVL
B2: TCN-504 (3251_K17) (antibody, V domains shown)
VH: QVQLQESGPGLVKPSETLSLTCAVSGVSISNIDFYWGWIRQPPGKGLEWIGNIYYTGITFYNPSLSSRVAISIDTSKNQFSLTLTSVTAADTAMYYCARHYGDSEAINDAFDIWGQGTMLTVSS
VL: EIVMTQSPATLSVSPGERATLSCRASQSVGNSLAWYQQRPGQAPRLLIYGASTRATGIPPRFSGSGSGTEFTLTISSLQTEDFAVYYCQQYINWRPLSFGGGTKVEIK

Columns and labels:
Settings in all cases: remark: other sources report otherwise
[1] = biological target: T1, recombinant homotrimeric HA, A/Hong Kong/2108/03 H9N2 (Influenza A virus A/Hong Kong/2108/03 (H9N2)); assay: trimeric HA microarray, transfection set 1
[2] = biological target: T2, recombinant homotrimeric HA, A/Japan/305/57 H2N2 (Influenza A virus A/Japan/305/57 (H2N2)); assay: trimeric HA microarray, transfection set 1
[3] = biological target: T3, recombinant homotrimeric HA, A/Solomon Islands/3/06 H1N1 (Influenza A virus A/Solomon Islands/3/06 (H1N1)); assay: trimeric HA microarray, transfection set 1
[4] = biological target: T4, recombinant homotrimeric HA, A/South Carolina/1/18 H1N1 (Influenza A virus A/South Carolina/1/18 (H1N1)); assay: trimeric HA microarray, transfection set 1
[5] = biological target: T5, recombinant homotrimeric HA, A/Vietnam/1203/04 H5N1 (Influenza A virus A/Vietnam/1203/04 (H5N1)); assay: trimeric HA microarray, transfection set 1
[6] = biological target: T6, recombinant homotrimeric HA, A/chicken/Vietnam/NCVD-016/08 H5N1 (Influenza A virus A/chicken/Vietnam/NCVD-016/08 (H5N1)); assay: trimeric HA microarray, transfection set 1
[7] = biological target: T7, recombinant homotrimeric HA, A/common magpie/Hong Kong/5052/07 H5N1 (Influenza A virus A/common magpie/Hong Kong/5052/07 (H5N1)); assay: trimeric HA microarray, transfection set 1
[8] = biological target: T8, recombinant homotrimeric HA, A/northern shoveler/California/HKWF115/07 (Influenza A virus A/northern shoveler/California/HKWF115/2007 (H6N1)); assay: trimeric HA microarray, transfection set 1
[9] = biological target: recombinant homotrimeric HA, A/California/4/09 H1N1 (Influenza A virus A/California/4/09 (H1N1)); assay: trimeric HA microarray, transfection set 2
[10] = biological target: recombinant homotrimeric HA, A/Egypt/3300-NAMRU3/08 H5N1 (Influenza A virus A/Egypt/3300-NAMRU3/08 (H5N1)); assay: trimeric HA microarray, transfection set 2
[11] = biological target: T1, recombinant homotrimeric HA, A/Hong …; assay: trimeric HA microarray, transfection set 2
[12] = biological target: recombinant homotrimeric HA, A/Indonesia/5/05 H5N1 (Influenza A virus A/Indonesia/5/05 (H5N1)); assay: trimeric HA microarray, transfection set 2
[13] = biological target: T2, recombinant homotrimeric HA, …; assay: trimeric HA microarray, transfection set 2
[14] = biological target: T3, recombinant homotrimeric HA, A/Solomon …; assay: trimeric HA microarray, transfection set 2
[15] = biological target: T4, recombinant homotrimeric HA, A/South …; assay: trimeric HA microarray, transfection set 2
[16] = biological target: T5, recombinant homotrimeric HA, …; assay: trimeric HA microarray, transfection set 2
[17] = biological target: T6, recombinant homotrimeric HA, …; assay: trimeric HA microarray, transfection set 2
[18] = biological target: T7, recombinant homotrimeric HA, A/common …; assay: trimeric HA microarray, transfection set 2
[19] = biological target: recombinant homotrimeric HA, A/swine/Ontario/01911-2/99 H4N6 (Influenza A virus A/swine/Ontario/01911-2/99 (H4N6)); assay: trimeric HA microarray, transfection set 2
[20] = biological target: recombinant homotrimeric HA, A/Hong Kong/1073/99 H9N2 (Influenza A virus A/Hong Kong/1073/99 (H9N2)); assay: trimeric HA microarray, transfection set 3
[21] = biological target: T8, recombinant homotrimeric HA, A/northern …; assay: trimeric HA microarray, transfection set 3
[22] = biological target: T9, recombinant homotrimeric HA, A/Anhui/1/05 H5N1 (Influenza A virus A/Anhui/1/05 (H5N1)); assay: trimeric HA microarray, transfection set 1
[23] = biological target: T10, recombinant homotrimeric HA, A/Netherlands/219/03 H7N7 (Influenza A virus A/Netherlands/219/03 (H7N7)); assay: trimeric HA microarray, transfection set 1
[24] = biological target: T9, recombinant homotrimeric HA, …; assay: trimeric HA microarray, transfection set 3
[25] = biological target: T10, recombinant homotrimeric HA, …; assay: trimeric HA microarray, transfection set 3
[26] = biological target: T11, recombinant homotrimeric HA, A/Wisconsin/67/05 H3N2 (Influenza A virus A/Wisconsin/67/05 (H3N2)); assay: trimeric HA microarray, transfection set 3
[27] = biological target: recombinant homotrimeric HA, A/duck/Yangzhou/02/05 H8N4 (Influenza A virus A/duck/Yangzhou/02/2005 (H8N4)); assay: trimeric HA microarray, transfection set 3
[28] = biological target: T11, recombinant homotrimeric HA, …; assay: trimeric HA microarray, transfection set 4
[29] = biological target: T11, recombinant homotrimeric HA, …; assay: trimeric HA microarray, transfection set 5

Row | Binder | Trimeric HA Binding RLU [1] | Trimeric HA Binding RLU [2] | Trimeric HA Binding RLU [3] | Trimeric HA Binding RLU [4] | Trimeric HA Binding RLU [5] | Trimeric HA Binding RLU [6] | Trimeric HA Binding RLU [7] | Trimeric HA Binding RLU [9] | Trimeric HA Binding RLU [10] | Trimeric HA Binding RLU [11] | Trimeric HA Binding RLU [12] | Trimeric HA Binding RLU [13] | Trimeric HA Binding RLU [14] | Trimeric HA Binding RLU [15] | Trimeric HA Binding RLU [16] | Trimeric HA Binding RLU [17] | Trimeric HA Binding RLU [18] | Trimeric HA Binding RLU [19] | further results
1 | B1 | 41 RLU | 191 RLU | 6780 RLU | 26400 RLU | 80 RLU | 10800 RLU | 6240 RLU | 18700 RLU | 30700 RLU | 18 RLU | 24500 RLU | 882 RLU | 3270 RLU | 25500 RLU | 26200 RLU | 17600 RLU | 7210 RLU | 82 RLU | Trimeric HA Binding RLU [8]: 9050 RLU; Trimeric HA Binding RLU [20]: 24200 RLU; Trimeric HA Binding RLU [21]: 29400 RLU
2 | B2 | 78 RLU | 15100 RLU | 29800 RLU | 21500 RLU | 1300 RLU | 27800 RLU | 29700 RLU | 15600 RLU | 21400 RLU | 23 RLU | 19700 RLU | 22600 RLU | 31400 RLU | 24700 RLU | 15000 RLU | 27300 RLU | 16800 RLU | 32500 RLU | Trimeric HA Binding RLU [22]: 29000 RLU; Trimeric HA Binding RLU [23]: 23800 RLU; Trimeric HA Binding RLU [24]: 30000 RLU; Trimeric HA Binding RLU [25]: 19600 RLU; Trimeric HA Binding RLU [26]: 21400 RLU; Trimeric HA Binding RLU [27]: 19600 RLU; Trimeric HA Binding RLU [28]: 20600 RLU; Trimeric HA Binding RLU [29]: 38100 RLU
